Test results taken from FireProtDB (doi:10.1016/0022-2836(91)90566-o).

B1: DNA-Binding protein, P69542 (parent)
chain: MIKVEIKPSQAQFTTRSGVSRQGKPYSLNEQLCYVDLGNEYPVLVKITLDEGQPAYAPGLYTVHLSSFKVGQFGSLMIDRLRLVPAK

Variants of: B1
Details: Enterobacteria phage fd; pH 7; 25 °C; GdnHCl; CD; MOPS 50 mM; NaCl 100 mM; reversible: yes; structure 1VQB; whole UniProt chain shown

| Variant | ddG of mutation (higher = less stable) [kcal/mol] | denaturant m value [kcal/mol/M] | denaturant midpoint (higher = more stable) [M] | unfolding free energy [kcal/mol] |
| --- | --- | --- | --- | --- |
| E30M | -0.7 | 3.7 | 2.78 | 9.7 |
| C33S | 4.2 | 4 | 1.4 | 4.8 |
| D36C | 2 | 3.5 | 2 | 7 |
| D36N | 1 | 4.2 | 2.2 | 8 |
| I47T | 7.4 | 4.9 | 0.9 | 1.6 |
| D50H | 1.5 | 3.8 | 2.1 | 7.5 |
| F68L | 4.2 | 3.4 | 1.4 | 4.8 |
| K69M | -0.2 | 3.1 | 2.7 | 9.2 |
| V70C | 3.1 | 4.4 | 1.7 | 5.9 |
| V70P | 5 | 4.4 | 1.3 | 4 |
